From patent US20060166920A1, “Oligonucleotide based therapeutics” (Regents of the University of Michigan, priority 2004, published 2006)

B1: siRNA #2: Bcl-xL small hairpin siRNA cassette, SEQ ID NO: 4, 76 bp (nucleic acid, listed as Homo sapiens)
DNA: GGATCCCGCTTGTCTACGCTTTCCACGCATTGATATCCGTGCGTGGAAAGCGTAGACAAGTTTTTTCCAAAAGCTT
modifications: expressed or natural sequence; the letters are possibly those of the target site
B2: siRNA #3: Bcl-xL small hairpin siRNA cassette, SEQ ID NO: 5, 76 bp (nucleic acid, listed as Homo sapiens)
DNA: GGATCCCGCGATCCGACTCACCAATACCTTTGATATCCGAGGTATTGGTGAGTCGGATCGTTTTTTCCAAAAGCTT
modifications: expressed or natural sequence; the letters are possibly those of the target site

Legend:
human Bcl-xL [1] = assay: Western blot of PC-3 cells transfected with Bcl-xL siRNA cassettes; type: cell-based; settings: inferred from transfection efficiency of 40% to 50%
Protocol: (§1) Human prostate cancer PC-3 cells and human breast cancer MCF-7 cells were transfected with the designed Bcl-xL dsRNA (siRNA) cassettes, using a transferrin-liposome system (LipofectaminePlus, Invitrogen). Briefly, 5×10^5 cells were plated per well in 6-well plates. After overnight culture, the cells were 60% to 70% confluent. The transfection was performed according to the manufacturer's instruction, with 0.4 μg siRNA cassette DNA per well. The cells were cultured for 48 hr, then harvested and cell lysates were made for Western blot analysis. 15 μg of protein were added to each lane for SDS-PAGE. […] Similar results were also observed in MCF-7 cells (See, e.g., FIG. 2). […] Therefore, with efficient delivery to the cells, the Bcl-xL siRNA effectively induces cell death.

Bcl-xS [2] = assay: as above; type: cell-based, human; settings: 0.4 μg siRNA cassette DNA per well, 48 hr
Protocol: as §1

human Bcl-xL [3] = assay: Western blot of MCF-7 cells transfected with Bcl-xL siRNA cassettes; type: cell-based
Protocol: as §1

Bcl-xS [4] = assay: as above; type: cell-based, human; settings: 0.4 μg siRNA cassette DNA per well, 48 hr
Protocol: as §1

[5] = system: human breast cancer MCF-7 cells; assay: Cell death of MCF-7 cells after transfection; type: cell-based; settings: MCF-7 cells 48 hr after transfection of siRNA cassette
Protocol: as §1
MCF-7 and PC-3 cells were transfected with psiBcl-xL (transfection conditions were performed as described above). In some experiments, FuGene 6 (Roche) was used due to low toxicity and high efficiency for plasmid transfection. Briefly, 60% confluent cells were transfected with 1-3 μg psiBcl-xL or psiLuc DNA per well in a 6-well plate (DNA:FuGene 6 ratio=1 μg:3 μl). […] The transfection efficiency of FuGene 6 (as detected by green fluorescence protein (GFP) expression; psiBcl-xL posseses the green fluorescence protein (GFP) gene, See, e.g., FIG. 4) for MCF-7 cells was about 40% -50%. […]

Row | Molecule | Bcl-xL gene knockdown in the cells transfected (human Bcl-xL [1]) [%] | effect on Bcl-xS expression (Bcl-xS [2]) | down-regulation of Bcl-xL (human Bcl-xL [3]; 0.4 μg siRNA cassette DNA per well, LipofectaminePlus, 48 hr) [%] | Bcl-xL down-regulation in the transfected cells (human Bcl-xL [3]; inferred from transfection efficiency of 40%-50%) [%] | effect on Bcl-xS expression (Bcl-xS [4]) | cell death [5]
1 | B1 | ~100 | without significantly affecting Bcl-xS expression | > 50 | ~100 | without significantly affecting Bcl-xS expression | up to 50%
2 | B2 | ~100 | without significantly affecting Bcl-xS expression |  |  |  | somewhat less cell death
